Assay [1] concerns the target T1, soluble human FcRn (human, UniProt P55899 24-297; P61769 21-119, biotinylated (Sulfo-NHS-LC-Biotin) in the ELISA; amine-coupled to CM5 chip in SPR).
T1 construct: also called shFcRn; biotinylated shFcRn
In words: SPR, pH 6.
Experimental: (§1) The following steps were performed to cross-link soluble human or cynomolgus FcRn to the dextran surface of a CM5 sensor chip (Biacore AB, Uppsala, Sweden) by an amine coupling reaction involving 1-ethyl-(3-dimethylaminopropyl)-carbodiimide hydrochloride (EDC) (Biacore AB, Uppsala, Sweden) and N-hydroxysuccinimide (NHS) (Biacore AB, Uppsala, Sweden) as recommended by Biacore (BIAapplications Handbook, version AB, section 4.2, Biacore AB, Uppsala, Sweden). […] Residual sites on the FcRn flow cell were blocked with 1 M ethanolamine hydrochloride pH 8.5 (Biacore AB, Uppsala, Sweden). A control flow cell was blocked with ethanolamine for reference subtraction. For analysis of the monomeric peptides, FcRn was coated to a final density of 4000-5000 response units (RU). For analysis of the peptide dimers, FcRn was coated to a density of 2000-2500 RU. All SPR measurements were performed using a BIACORE 3000 Instrument (Biacore AB Uppsala, Sweden). For measurements done at either pH 6 or pH 7.4, experiments were performed in 50 mM phosphate, 100 mM sodium chloride, 0.01% surfactant P20 (Biacore AB, Uppsala, Sweden).
(§2) Ten, 2-fold dilutions of the peptide were injected over the FcRn-CM5 chip at a rate of 20 μl/min for 2 min. The peptide was dissociated from the chip for 2.5 minutes with buffer. Any remaining peptide was removed from the chip with a 30 second injection of HBS-P buffer (Biacore AB, Uppsala, Sweden) at a rate of 30 μl/min. Sensorgrams were generated and analyzed using BiaEval software version 3.1 (Biacore AB, Uppsala, Sweden). The equilibrium RU observed for each injection was plotted against concentration. The equilibrium KD values were derived by analysis of the plots using the steady state affinity model included in the BiaEval software.

For assay [2], the target named is T1, soluble human FcRn. In words: ELISA, competitor human IgG. On the technique in general: ELISA stands for enzyme-linked immunosorbent assay.
Experimental: (§3) The wells were coated with 100 μl/well of 1 μg/ml biotinylated-shFcRn in Buffer A. The plate was sealed and incubated at 37° C. for 2 hours. Afterwards, the plate washed with 200 μl/well of Buffer B (Buffer B: 100 mM MES pH 6, 150 mM NaCl, 0.5% BSA IgG-free (Jackson ImmunoResearch, West Grove, Pa.), 0.05% Tween-20). […] To allow for mixing, the plate was rocked for 2 minutes, sealed and incubated at 37° C. for 2 hours. […] The plate was covered, incubated for 30 minutes at room temperature and washed 4 times with 200 μl/well of ice-cold buffer B. SureBlue TMB substrate solution (100 μl/well, KPL, Gaithersburg, Md.) was added and the plate was allowed to incubate at room temperature until color developed, which took 5 to 10 minutes. Once color developed, 100 μl/well of TMB stop solution (KPL, Gaithersburg, Md.) was added and the absorbance was measured at 450 nm. The data was plotted as absorbance vs. peptide concentration to derive the inhibitory concentration 50% (IC₅₀) values.
Assay [3] addresses T1, soluble human FcRn. In words: SPR, pH 6. This is another data set of the same source. A general note: SPR reads the build-up and loss of mass on a sensor chip optically.
Experimental: as §1, §2
Assay [4] concerns the target T1, soluble human FcRn. In words: SPR, pH 6. The source holds these as a separate data set.
Experimental: as §1, §2
Assay [5] deals with T1, soluble human FcRn. In words: SPR, pH 7.4.
Experimental: as §1, §2
Assay [6] deals with T1, soluble human FcRn. Kind of assay: ELISA, competitor human IgG. This is another data set of the same source.
Experimental: as §3
Assay [7] has as its target T1, soluble human FcRn. In words: SPR, pH 6. The source holds these as a separate data set.
Experimental: as §1, §2
Assay [8] has as its target T1, soluble human FcRn. Kind of assay: SPR, pH 7.4. The source holds these as a separate data set.
Experimental: as §1, §2
Assay [9] concerns the target T1, soluble human FcRn. Kind of assay: ELISA, competitor human IgG. This is another data set of the same source.
Experimental: as §3
In assay [10] the target is T1, soluble human FcRn. In words: SPR, pH 6. The source holds these as a separate data set.
Experimental: as §1, §2
The target in assay [11] is T1, soluble human FcRn. In words: SPR, pH 6. This is another data set of the same source.
Experimental: as §1, §2
For assay [12], the target named is T1, soluble human FcRn. Kind of assay: ELISA, competitor human IgG. The source holds these as a separate data set.
Experimental: as §3
The target of assay [13] is T1, soluble human FcRn. In words: SPR, pH 6. The source holds these as a separate data set.
Experimental: as §1, §2
Assay [14] concerns the target T1, soluble human FcRn. Kind of assay: ELISA, competitor human IgG. The source holds these as a separate data set.
Experimental: as §3

Read-outs that look alike come from different tables or passages of the source. Bridge positions count the residues as written; N and C are the ends. Square brackets hold non-standard residues; d marks the D form. Ends that are not written are not given here. Pen = CC(C)(S)[C@H](N)C(=O)O; NMeA = CN[C@@H](C)C(=O)O

T1 sequence (P55899 24-297 limits assumed, chain 1 of 2): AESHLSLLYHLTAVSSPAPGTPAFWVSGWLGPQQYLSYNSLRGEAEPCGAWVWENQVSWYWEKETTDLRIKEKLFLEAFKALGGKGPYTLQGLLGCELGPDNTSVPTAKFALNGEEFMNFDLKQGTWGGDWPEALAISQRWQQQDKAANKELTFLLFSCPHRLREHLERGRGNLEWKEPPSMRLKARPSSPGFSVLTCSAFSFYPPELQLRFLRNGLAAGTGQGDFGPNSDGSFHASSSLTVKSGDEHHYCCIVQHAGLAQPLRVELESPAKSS
T1 sequence (P61769 21-119 limits assumed, chain 2 of 2): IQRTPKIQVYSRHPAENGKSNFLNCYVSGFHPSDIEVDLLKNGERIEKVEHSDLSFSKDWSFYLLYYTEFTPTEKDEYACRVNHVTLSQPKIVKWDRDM

What is called Kd is the concentration at which binding is half-saturated. The low end stands for tighter binding, the high end for weaker binding. Turning to QRFCTGHFGGLFPCNGP-NH2 (disulfide 4-14 (inferred)) [Peptide No. 26], binding in [1] was put at a Kd of 230 µM.

By IC50 is commonly meant the concentration that gives 50% inhibition. On to QRFC[NMeA]GHFGGLYPCNGP-NH2 (disulfide 4-14 (inferred)) [Peptide No. 196], for which, in assay [2], the IC50 turned out to be 169 µM. For the same molecule, in assay [3], the Kd is 18 µM. The corresponding values for QRFXTGHFGGLYPCNGP (Pen at 4; NMeLeu at 11; disulfide; C-terminal amide) [Peptide No. 113] are 1.6 µM and 0.086 µM. Regarding RFXTGXFGGLYPC (Pen at 3; 4GuanylPhe at 6; Sar at 9; NMeLeu at 10; disulfide; C-terminal amide) [Peptide No. 257], the Kd in assay [4] was 0.074 µM; in assay [5] it was 0.073 µM. As for RFXTGXFGGLYPC (Pen at 3; His(Me)2 (di-methylated histidine) at 6; disulfide; C-terminal amide) [Peptide No. 260], the Kd in assay [4] turned out to be 0.19 µM; in assay [5], 0.46 µM. This molecule registered an IC50 in assay [6] of 4.4 µM. As for RFXTGHFGGLYPC (Pen at 3; Sar at 9; NMeLeu at 10; disulfide; C-terminal amide) [Peptide No. 235], the Kd in assay [7] and in assay [3] was 0.031 µM each time. For RFXTGRFGGLYPC (Pen at 3; Sar at 9; NMeLeu at 10; disulfide; C-terminal amide) [Peptide No. 256], the Kd in [4] and in assay [5] was 0.5 µM in each case. In assay [6], this molecule registered an IC50 of 5.5 µM. RFXTGHFFGLYPC (Pen at 3; D-Phe at 8; Sar at 9; NMeLeu at 10; disulfide; C-terminal amide) [Peptide No. 217] came in with a Kd in assay [7] of 1.4 µM. Consider RFXTGKFGGLYPC (Pen at 3; Sar at 9; NMeLeu at 10; disulfide; C-terminal amide) [Peptide No. 255], for which the results for the Kd in [4] and in [5] were 1.3 µM and 1.1 µM, respectively. In addition, the IC50 in [6] came out at 40 µM.

B1: Peptide No. 259 (peptide)
peptide: RFXTGXFGGLYPC
modifications: not fully specified; Pen at 3; His(Me) (mono-methylated histidine) at 6; disulfide; C-terminal amide
Regarding B1, the Kd worked out at 0.14 µM in assay [4] and 0.38 µM in [5]. Moreover, the IC50 in assay [6] was 2.9 µM. In [8], QRFXTGHFGPLYPCNGP (Pen at 4; D-Pro at 10; disulfide; C-terminal amide) [Peptide No. 40] registered a Kd of 1.1 µM. Also, the IC50 in assay [9] worked out at 1.4 µM.

B2: Peptide No. 41 (peptide)
peptide: QRF[Pen]TGHFG[dR]LYPCNGP-NH2
modifications: disulfide 4-14; N-terminus assumed
SMILES: CC(C)C[C@@H]1NC(=O)[C@@H](CCCNC(=N)N)NC(=O)CNC(=O)[C@H](Cc2ccccc2)NC(=O)[C@H](Cc2c[nH]cn2)NC(=O)CNC(=O)[C@H]([C@@H](C)O)NC(=O)[C@@H](NC(=O)[C@H](Cc2ccccc2)NC(=O)[C@H](CCCNC(=N)N)NC(=O)[C@@H](N)CCC(N)=O)C(C)(C)SSC[C@@H](C(=O)N[C@@H](CC(N)=O)C(=O)NCC(=O)N2CCC[C@H]2C(N)=O)NC(=O)[C@@H]2CCCN2C(=O)[C@H](Cc2ccc(O)cc2)NC1=O
For the molecule B2, the Kd was 0.83 µM in assay [10] and 8.8 µM in [8]. In assay [9], this molecule yielded an IC50 of 8.1 µM. As to QRFXTGHFGILYPCNGP (Pen at 4; D-Ile at 10; disulfide; C-terminal amide) [Peptide No. 43], binding in assay [8] was characterised by a dissociation constant (Kd) of 41 µM. In [9], this molecule came in with an IC50 of 18 µM. QRFXTGHFGHLYPCNGP (Pen at 4; D-His at 10; disulfide; C-terminal amide) [Peptide No. 42]: the values for the Kd in assay [10] and in assay [8] were 2 µM and 20 µM, respectively.

For the molecule QRFXTGHFGFLYPCNGP (Pen at 4; D-Phe at 10; disulfide; C-terminal amide) [Peptide No. 44], the Kd in [10] was found to be 1.7 µM; in [8], 100 µM. On to QRFXTGHFDGLYPCNGP (Pen at 4; D-Asp at 9; disulfide; C-terminal amide) [Peptide No. 47], for which the results for the Kd in assay [10] and in assay [8] were 0.58 µM and 4.9 µM, respectively.

QRFXTGHFGGLYPCNGP (Pen at 4; Sar at 6; disulfide; C-terminal amide) [Peptide No. 108]: the IC50 in [2] was more than 125 µM.

B3: Peptide No. 264 (peptide)
peptide: RFXTGXFGGLYPC
modifications: Pen at 3; 4-PiperidylAla at 6; Sar at 9; NMeLeu at 10; disulfide; C-terminal amide
Regarding B3, the Kd amounted to 5.2 µM in assay [4] and 6.4 µM in [5]. In [6], this molecule returned an IC50 of 85 µM. For the molecule QRFXTGHFGGLYPXNGP (Pen at 4 and 14; disulfide; C-terminal amide) [Peptide No. 34], the affinity in assay [11], expressed as Kd, was 0.37 µM. The molecule further yielded an IC50 in assay [12] of 2 µM.

In assay [2], QRFXTGHFGGLYPCNGP (Pen at 4; Sar at 10; disulfide; C-terminal amide) [Peptide No. 112] showed an IC50 of 0.9 µM.

On to QRFXTGHFGXLYPCNGP (Pen at 4; Aib (aminoisobutyric acid) at 10; disulfide; C-terminal amide) [Peptide No. 46], for which the figures for the Kd in assay [10] and in [8] were 0.48 µM and 5.3 µM, respectively. Besides, the IC50 in assay [9] turned out to be 2.4 µM.

Molecule QRFXTGHFGGLYPXNGP (Pen at 4; hC at 14; disulfide; C-terminal amide) [Peptide No. 69] gave an IC50 in [12] of 2 µM.

B4: Peptide No. 251 (peptide)
peptide: RFXTGXFGGLYPC
modifications: not fully specified; Pen at 3; ThienylAla at 6; Sar at 9; NMeLeu at 10; disulfide; C-terminal amide
Consider B4, for which the Kd was 2 µM in assay [4] and 3 µM in assay [5]. The same molecule gave an IC50 in assay [6] of 45 µM. For RFXTGXFGGLYPC (Pen at 3; 3PyridylAla at 6; Sar at 9; NMeLeu at 10; disulfide; C-terminal amide) [Peptide No. 250] the same measures were 0.064 µM, 0.26 µM and 1.2 µM. QRFXTGHXGGLYPCNGP (Pen at 4; 3-MePhe at 8; disulfide; C-terminal amide) [Peptide No. 89] showed a Kd in assay [13] of 0.67 µM. Further, in assay [14], the IC50 was 4.1 µM. QRFXTGHFGGLYPXNGP (hC at 4 and 14; disulfide; C-terminal amide) [Peptide No. 28] returned a Kd in assay [11] of 3.8 µM. The IC50 in assay [12] came to 20 µM. QRFXTGHFGPLYPXNGP (Pen at 4 and 14; D-Pro at 10; disulfide; C-terminal amide) [Peptide No. 295]: binding in assay [11] was put at a Kd of 0.28 µM. Moreover, the IC50 in [12] turned out to be 1.6 µM. On to QRFXTGHFGGLXPCNGP (Pen at 4; pentafluoroPhe at 12; disulfide; C-terminal amide) [Peptide No. 65], for which the Kd in [1] turned out to be 72 µM.

For QRFXTGHFGGLYPXNGP (hC at 4; Pen at 14; disulfide; C-terminal amide) [Peptide No. 70], binding in assay [11] was put at a Kd of 2.1 µM. Consider QRFXTGHFGGLYPCNGP (Pen at 4; Sar at 9; disulfide; C-terminal amide) [Peptide No. 111], for which the Kd in [3] was determined as 2 µM.

B5: Peptide No. 268 (peptide)
peptide: RFXTGXFGGLYPC
modifications: Pen at 3; 4-PyridylAla at 6; Sar at 9; NMeLeu at 10; disulfide; C-terminal amide
Turning to B5, the dissociation constant Kd was found to be 0.067 µM in assay [4] and 0.28 µM in assay [5]. For the same molecule, the IC50 in [6] was 1.3 µM. On to QRFXTGHFGGLYPCNGP (Pen at 4; NMeTyr at 12; disulfide; C-terminal amide) [Peptide No. 114], for which the IC50 in assay [2] is more than 125 µM. For the same molecule, in assay [3], the affinity, expressed as Kd, was 92 µM. In assay [12], QRF[dC]TGHFGGLYPCNGP-NH2 (disulfide 4-14 (inferred)) [Peptide No. 29] registered an IC50 of more than 125 µM.

With QRFXTGHFGGLXPCNGP (Pen at 4; 2-nitro-Tyr at 12; disulfide; C-terminal amide) [Peptide No. 87], the affinity in assay [1], expressed as Kd, was 290 µM. As for QRFXTGHFGGLXPCNGP (Pen at 4; 4-nitro-Phe at 12; disulfide; C-terminal amide) [Peptide No. 68], the Kd in assay [1] worked out at 180 µM. On to QRFCTGHFGGLYPXNGP (hC (L-homocysteine) at 14; disulfide; C-terminal amide) [Peptide No. 27], for which the Kd in [11] was 3.9 µM. The IC50 in assay [12] was 21 µM. In the case of QRFCTGHFGGLYPXNGP (Pen at 14; disulfide; C-terminal amide) [Peptide No. 33], the IC50 in assay [12] is 18 µM.
